{"source": "paper PMC5753338", "origin": "cited, not measured here", "molecular_target": "BAIAP2L1/IRTKS SH3 (Homo sapiens) (UniProt Q9UHR4)", "sequence (Q9UHR4 336-405)": "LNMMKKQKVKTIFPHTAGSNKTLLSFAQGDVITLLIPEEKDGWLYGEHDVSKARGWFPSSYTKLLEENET"}
{"substance": "EspFU PxxP motifs (from UniProt P0DJ88)", "values": [{"measurement": "Kd", "value": 500, "unit": "nM"}]}
